Where “and” joins values, the source holds several entries; their conditions need not be identical. Equal values may be shown once.
T1: human FLT3 (Fms Related Receptor Tyrosine Kinase 3) expressed on cells (human, UniProt P36888 27-993)
T1 construct: whole, on cells; Same entry used for all cell lines; also called FLK2
T1 sequence (looked up): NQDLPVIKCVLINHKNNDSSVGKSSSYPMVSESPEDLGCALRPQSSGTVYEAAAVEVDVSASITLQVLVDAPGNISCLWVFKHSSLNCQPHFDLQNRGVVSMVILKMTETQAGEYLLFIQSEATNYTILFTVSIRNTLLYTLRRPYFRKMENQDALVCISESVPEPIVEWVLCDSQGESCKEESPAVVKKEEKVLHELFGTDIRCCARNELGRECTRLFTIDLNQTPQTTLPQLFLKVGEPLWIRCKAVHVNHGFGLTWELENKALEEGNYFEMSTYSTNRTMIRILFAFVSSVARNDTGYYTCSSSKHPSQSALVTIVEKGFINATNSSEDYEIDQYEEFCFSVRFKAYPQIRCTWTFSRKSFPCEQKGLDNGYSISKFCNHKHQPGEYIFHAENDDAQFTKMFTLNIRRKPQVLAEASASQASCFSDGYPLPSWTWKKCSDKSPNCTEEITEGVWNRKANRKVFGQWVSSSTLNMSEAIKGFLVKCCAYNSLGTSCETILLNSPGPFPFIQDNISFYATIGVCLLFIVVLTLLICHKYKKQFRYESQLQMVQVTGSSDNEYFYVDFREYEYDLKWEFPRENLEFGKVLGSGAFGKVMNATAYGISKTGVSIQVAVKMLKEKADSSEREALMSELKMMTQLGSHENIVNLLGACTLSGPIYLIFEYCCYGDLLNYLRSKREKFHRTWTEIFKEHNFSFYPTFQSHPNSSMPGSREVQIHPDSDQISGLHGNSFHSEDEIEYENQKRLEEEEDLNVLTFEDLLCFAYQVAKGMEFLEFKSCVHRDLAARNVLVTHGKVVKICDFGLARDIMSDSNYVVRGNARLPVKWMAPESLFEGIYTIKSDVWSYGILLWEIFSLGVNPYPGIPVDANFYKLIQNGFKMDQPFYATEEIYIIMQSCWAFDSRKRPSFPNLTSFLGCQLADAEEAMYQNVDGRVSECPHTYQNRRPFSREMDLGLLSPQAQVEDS


Columns and labels:
[1] = biological target: T1, human FLT3 (Fms Related Receptor …); test: flow cytometry on FLT3-expressing REH cells
Description: Cells were washed five times with flow buffer and stained with anti-human IgG Fc antibody conjugated to Alexa Fluor 488 (Jackson Immunoresearch Laboratories, 109-545-008). Cells were stained with 7-AAD (7-AAD Viability Staining Solution, Biolegend 420404) followed by flow cytometry analysis. […] The antibodies used are as described in Example 1.

[2] = biological target: T1, human FLT3 (Fms Related Receptor …); test: flow cytometry, chimeric antibody on FLT3-expressing REH cells
[3] = biological target: T1, human FLT3 (Fms Related Receptor …); test: flow cytometry on FLT3+ REH cells
Description: (§1) Cells were washed five times with flow buffer and stained with anti-human IgG lambda antibody conjugated to FITC (Southern Biotech 2070-02). Cells were stained with 7-AAD (7-AAD Viability Staining Solution, Biolegend 420404) followed by flow cytometry analysis.

[4] = biological target: T1, human FLT3 (Fms Related Receptor …); test: cell-based or functional assay
[5] = biological target: T2, human CD3 on the surface of T cells / Jurkat cells (human, UniProt P07766 23-207; P09693 23-182; P04234 22-171); test: flow cytometry on CD3+ human T cells
T2 construct: whole, on cells
Description: as §1

[6] = biological target: T3, Recombinant Human CD3 epsilon Fc Chimera Protein (R&D, no. 9850-CD-050) (human, UniProt P07766 23-126); test: ELISA, plate coated with recombinant human CD3 epsilon Fc chimera
T3 construct: Bought reagent; Fc part of the bought chimera not given
Method: The plate was washed with wash buffer (PBS (Caisson Labs, no. PBL06)+0.05% Tween20 (ThermoFisher, no. 28320)) The plate was blocked with blocking buffer (PBS (Caisson Labs, no. PBL06)+1% (w/v) BSA (Rockland, no. BSA-50)+0.05% Tween20 (ThermoFisher, no 28320)) for two hours at room temperature (RT). Plate was washed twice with wash buffer. […] Plate was washed 4× with wash buffer. Plate was incubated with 100 μL per well of 1:200 goat anti-human lambda-HRP secondary antibody (SouthernBiotech, no. 2070-05) for one hour at RT. Plate was washed 4× with wash buffer. Plate was incubated with 100 μL per well of TMB Substrate (ThermoFisher Cat #34029) for 20 minutes protected from light. Stop solution (2N H₂SO₄) was added to each well. Absorbance of wells was recorded at 450 nm on an Envision plate reader (PerkinElmer). […] Variable slope (four parameters) curve was fit to the data and EC50 was used to compare binding affinities.

[7] = biological target: T2, human CD3 on the surface of T cells / …; test: flow cytometry on primary human pan T cells from cord blood
[8] = biological target: T2, human CD3 on the surface of T cells / …; test: flow cytometry on CD3-expressing Jurkat cells
Method: The mouse heavy and light chain variable regions of SP34 clone were humanized and two humanized variants were tested for their binding affinities to CD3 in Jurkat cells (ATCC) expressing high levels of CD3. Jurkat cells were stained with various concentrations of humanized SP34 variants 2 and 6 (variant 2 VH and VL are SEQ ID NOs: 67 and 68, respectively; variant 6 VH and VL are SEQ ID NOs: 69 and 70, respectively) antibodies prepared in PBS+2% BCS+2 mM EDTA (flow buffer). Cells were washed five times with flow buffer and stained with anti-human IgG Fc antibody conjugated to Alexa Flour 488 (Jackson Immunoresearch Laboratories, 109-095-008). Cells were stained with 7-AAD (7-AAD Viability Staining Solution, Biolegend 420404) followed by flow cytometry analysis.

T2 sequence (P07766 23-207, chain 1 of 3): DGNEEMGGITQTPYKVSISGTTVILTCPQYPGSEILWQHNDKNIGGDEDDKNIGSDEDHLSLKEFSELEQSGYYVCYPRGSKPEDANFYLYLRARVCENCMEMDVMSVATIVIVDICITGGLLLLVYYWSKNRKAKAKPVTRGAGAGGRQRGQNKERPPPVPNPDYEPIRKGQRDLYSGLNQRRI
T2 sequence (P09693 23-182, chain 2 of 3): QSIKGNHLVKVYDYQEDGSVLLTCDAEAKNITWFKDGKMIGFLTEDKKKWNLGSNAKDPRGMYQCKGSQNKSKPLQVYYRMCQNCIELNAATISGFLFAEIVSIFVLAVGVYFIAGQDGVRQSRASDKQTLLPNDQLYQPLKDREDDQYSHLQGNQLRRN
T2 sequence (P04234 22-171, chain 3 of 3): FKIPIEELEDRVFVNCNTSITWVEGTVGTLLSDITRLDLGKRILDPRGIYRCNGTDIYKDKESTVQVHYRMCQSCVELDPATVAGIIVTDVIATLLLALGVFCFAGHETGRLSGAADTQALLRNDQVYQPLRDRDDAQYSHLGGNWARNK
T3 sequence (P07766 23-126, change not shown): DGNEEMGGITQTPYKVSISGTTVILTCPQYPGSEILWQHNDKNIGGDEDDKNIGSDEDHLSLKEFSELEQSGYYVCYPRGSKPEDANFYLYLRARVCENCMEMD

| Binder | EC50 [3] [nM] | EC50 of cytotoxicity against REH cells [4] [nM] | EC50 [5] [nM] | also measured |
| --- | --- | --- | --- | --- |
| humanized 118BA variant 1 (antibody, V domains shown, detected with anti-human IgG Fc; also called 18BA-v1; 1-18BA-v1) VH: QVTLKESGPTLVKPTQTLTLTCTFSGFSLSTSTMGVGWIRQPPGKALEWLAHILWNDSKRYNPSLKSRLTITKDTSKKQVVLTMTNMDPVDTATYYCARIVYYSTYVGYFDVWGQGTTVTVSS VL: DIQMTQSPSSLSASVGDRVTITCRASQEISGYLSWLQQKPGKAIKRLIYAASTLQSGVPSRFSGSRSGSDYTLTISSLQPEDFATYYCLQYASYPFTFGQGTKLEIK |  |  |  | EC50 [1]: 0.4 nM |
| humanized 118BA variant 5 (antibody, V domains shown, detected with anti-human IgG Fc; also called 18BA-v5) VH: QITLKESGPTLVKPTQTLTLTCTFSGFSLSTSTMGVGWIRQPPGKALEWLAHILWNDDKRYGPSLKSRLTITKDTSKKQVVLTMTNMDPVDTATYYCARIVYYSTYVGYFDVWGQGTTVTVSS VL: EIVMTQSPGTLSLSPGERATLSCRASQEISGYLSWLQQKPGQAIRRLIYAASTRATGIPDRFSGSRSGSDYTLTISRLEPEDFAVYYCLQYASYPFTFGQGTKLEIK |  |  |  | EC50 [1]: 0.72 nM |
| chimeric monoclonal anti-FLT3 antibody 118BA (antibody, V domains shown) VH: QVTLKESGPGILQPSQTLSLTCSFSGFSLSTSTMGVGWIRQPSGKGLEWLLHILWNDSKYYNPALKSRLTISKDTYNKQVFLKIANVDTADTATYYCARIVYYSTYVGYFDVWGAGTTVTVSS VL: DIQMTQSPSSLSASLGERVSLTCRASQEISGYLSWLQQKPDGTIKRLIYAASTLHSGVPKRFSGSRSGSDYSLTISRLESEDVADYYCLQYASYPFTFGSGTKLEIK |  |  |  | EC50 [2]: 0.77 nM |
| CD3xFLT3 bispecific antibody 118BA #3C (bispecific antibody, human IgG1, lambda) heavy: not shown light: QAVVTQEPSFSVSPGGTVTLTCGSSTGAVTTSNYANWVQQTPGQAFRGLIGGTNKRSSGVPDRFSGSLLGDKAALTITGAQADDESDYYCALWFSNHWVFGGGTKLTVLGGQPKAAPSVTLFPPSSEELQANKATLVCLISDFYPGAVTVAWKADSSPVKAGVETTTPSKQSNNKYAASSYLSLTPEQWKSHRSYSCQVTHEGSTVEKTVAPTECS | 0.9 | 0.013 | 32 |  |
| CD3xFLT3 bispecific antibody 118BA #3A (bispecific antibody, human IgG1, lambda) heavy: not shown light: QAVVTQEPSFSVSPGGTVTLTCGSSTGAVTTSNYANWVQQTPGQAFRGLIGGTNKRSSGVPDRFSGSLLGDKAALTITGAQADDESDYYCALWYSNLWVFGGGTKLTVLGGQPKAAPSVTLFPPSSEELQANKATLVCLISDFYPGAVTVAWKADSSPVKAGVETTTPSKQSNNKYAASSYLSLTPEQWKSHRSYSCQVTHEGSTVEKTVAPTECS | 1.18 | 0.013 | 15.5 |  |
| CD3xFLT3 bispecific antibody 118BA #3B (bispecific antibody, human IgG1, lambda) heavy: not shown light: QAVVTQEPSFSVSPGGTVTLTCGSSTGAVTTSNYANWVQQTPGQAFRGLIGGTNKRVSGVPDRFSGSLLGDKAALTITGAQADDESDYYCALWFSNHWVFGGGTKLTVLGGQPKAAPSVTLFPPSSEELQANKATLVCLISDFYPGAVTVAWKADSSPVKAGVETTTPSKQSNNKYAASSYLSLTPEQWKSHRSYSCQVTHEGSTVEKTVAPTECS | 1.23 | 0.017 | 13.6 |  |
| CD3xFLT3 bispecific antibody 118BA #3a1 (bispecific antibody, human IgG1, lambda) heavy: not shown light: QAVVTQEPSFSVSPGGTVTLTCGSSTGAVTTSNYANWVQQTPGQAFRGLIGGTNKRSSGVPDRFSGSLLGDKAALTITGAQADDESDYYCALWFSNHWVFGGGTKLTVLGGQPKAAPSVTLFPPSSEELQANKATLVCLISDFYPGAVTVAWKADSSPVKAGVETTTPSKQSNNKYAASSYLSLTPEQWKSHRSYSCQVTHEGSTVEKTVAPTECS | 1.17 | 0.33 |  | EC50 [6]: 0.0331 µg/mL and 0.16 nM |
| chimeric monoclonal anti-CD3 IgG SP34 clone (antibody, V domains shown) VH: EVQLVESGGGLVQPKGSLKLSCAASGFTFNTYAMNWVRQAPGKGLEWVARIRSKYNNYATYYADSVKDRFTISRDDSQSILYLQMNNLKTEDTAMYYCVRHGNFGNSYVSWFAYWGQGTLVTVSS VL: QAVVTQESALTTSPGETVTLTCRSSTGAVTTSNYANWVQEKPDHLFTGLIGGTNKRAPGVPARFSGSLIGDKAALTITGAQTEDEAIYFCALWYSNLWVFGGGTKLTVL |  |  |  | EC50 [7]: 3.2 nM |
| humanized SP34 variant 6 (antibody, human IgG1, V domains shown, also called humSP34-v6; humanized anti-CD3 SP34 variant 6) VH: EVQLVESGGGLVQPGGSLKLSCAASGFTFNTYAMNWVRQASGKGLEWVGRIRSKYNNYATYYADSVKGRFTISRDDSKNTAYLQMNSLKTEDTAVYYCVRHGNFGNSYVSWFAYWGQGTLVTVSS VL: QAVVTQEPSFSVSPGGTVTLTCGSSTGAVTTSNYANWVQQTPGQAFRGLIGGTNKRSSGVPDRFSGSLLGDKAALTITGAQADDESDYYCALWYSNLWVFGGGTKLTVLG |  |  |  | EC50 [8]: 3.2 nM |
| humanized SP34 variant 2 (antibody, human IgG1, V domains shown, also called humSP34-v2; humanized anti-CD3 SP34 variant 2) VH: EVQLVESGGGLVQPGGSLKLSCAASGFTFNTYAMNWVRQASGKGLEWVGRIRSKYNNYATYYADSVKGRFTISRDDSKSTAYLQMNSLKTEDTAVYYCVRHGNFGNSYVSWFAYWGQGTLVTVSS VL: QAVVTQEPSLTVSPGGTVTLTCGSSTGAVTTSNYANWVQQKPGQAFRTLIGGTNKKHPWTPARFSGSLLGGKAALTLSGAQPEDEAEYYCALWYSNLWVFGGGTKLTVLG |  |  |  | EC50 [8]: 2.38 nM |

Reference: patent publication US20240368288A1 (HEMOGENYX PHARMACEUTICALS, published 2024)
